Assay: soluble on expression in E. coli; label from the status in PepcDB or PDB records

| Sequence | soluble on expression in E. coli |
| --- | --- |
| SLNKIKAFYNLPMAYYRLSNFLKHYIDDNTIIICIGTDRCIGDCLGPMVGTMLKEKFFPLNVYGTISEPIHALNIDKKLYKIKKDHTNSTIIGIDACLGDTENIGEIQVRDYAIHPGKGVGKSLPDVGEVSIVGIVDSCESSELFTNRNIRLNLIFEMSKVIVQTIIHSYYLHKTFSDSIFPDSASTLK | soluble |
| MSLTEHALSNARIVLEDDIILGSVLIRDGKIADISEGASKTGEDLEGDFLIPGLVELHTDHLEQHYSPRPGVIWDKIAAIQAHDAQVASSGITTVFDCLRLGSDEDGGFKKGEMREMADAIEAAADQNRLRADHLLHLRCEVASADVLEHFEDFETDPRVRLISLMDHSPGQRQFQSMDQYIFYYQKKRGLSDEAFAEFVRRRQAASAEYSAKHRDYLAASCAKRGITVASHDDATEAHVGEAIGHGVKLAEFPTSVEAAKASHSAGMSVLMGAPNIVRGKSHSGNIAARDLAEIGVLDVLSSDYVPFSLLFAPFLLADQVEAISLSEALRMVTATPARTVGLVDRGRIATGLRADLVRVHREDGVPVARSVWRQGKRVAEGHHHHHH | not soluble |
| RKIGTAFVMGDVEEVMSRSSQLVINPYHGHKEADRDIKNPENWESVMEFAQIDGVFVLDENGIIIACGRYIEASAKDLVSKIKRGLGGRHIACASITKETKAIAVVVSESGGDITVYKD | soluble |
| MSFFVNRIWYGNHFLQWILVPFSWLYRIVIRTRRWYLQRFCQQLYPIPIIVVGNVTVGGVGKTPLVIEIAKKIQQKGLKVGIVSRGYKAAIKHFPYEVKLNDSAELVGDEPLMMARKINCPVVIAPKRNEAVRYLLDKHSVEIIISDDGLQHYKMGRSIEIVVIDGMRKLGNGFCLPAGPLREPDSRLKQVDFVIVNQGAAEGTYSMELIPKNIVRLSTQEEVSNDLFTSEVAAVAGIGNPQRFYSTLSQLGIKFNPYSYPDHHQFKPHDLNDIDLPVIMTEKDAVKCYSFSSDKLYYLPVEAKLNDSFWEAFWSHQQLQGYYLEHHHHHH | not soluble |
| SESKKRELFSQIKDLKGTSGNVALLELGCGTGANFQFYPQGCKVTCVDPNPNFEKFLTKSMAENRHLQYERFIVAYGENMKQLADSSMDVVVCTLVLCSVQSPRKVLQEVQRVLRPGGLLFFWEHVAEPQGSRAFLWQRVLEPTWKHIGDGCHLTRETWKDIERAQFSEVQLEWQPPPFRWLPVGPHIMGKAVK | soluble |
| MNITKAFCLSIALLGASNMQAITNSDFVIQQDNTKINNYQTNRPETSKRLFVSQAVEQQIAHIKQLLTNARLAWMFENCFPNTLDTTVHFDGKDDTFVYTGDIHAMWLRDSGAQVWPYVQLANKDAELKKMLAGVIKRQFKCINIDPYANAFNMNSEGGEWMSDLTDMKPELHERKWEIDSLCYPIRLAYHYWKTTGDASIFSDEWLTAIAKVLKTFKEQQRKEDPKGPYRFQRKTERALDTMTNDGWGNPVKPVGLIASAFRPSDDATTFQFLVPSNFFAVTSLRKAAEILNTVNKKPDLAKECTTLSNEVETALKKYAVYNHPKYGKIYAFEVDGFGNQLLMDDANVPSLIALPYLGDVKVNDPIYQNTRKFVWSEDNPYFFKGTAGEGIGGPHIGYDMIWPMSIMMKAFTSQNDAEIKTCIKMLMDTDAGTGFMHESFHKNDPKNFTRSWFAWQNTLFGELILKLVNEGKVDLLNSIQLEHHHHHH | not soluble |
| EEILGSLFLKKKKKKKKKKSRNHRYFALLLPIRKMKKFFDSRREQGGSGLGSGSSGGGGSTSGLGSGYIGRVFGIGRQQVTVDEVLAEGGFAIVFLVRTSNGMKCALKRMFVNNEHDLQVCKREIQIMRDLSGHKNIVGYIDSSINNVSSGDVWEVLILMDFCRGGQVVNLMNQRLQTGFTENEVLQIFCDTCEAVARLHQCKTPIIHRDLKVENILLHDRGHYVLCDFGSATNKFQNPQTEGVNAVEDEIKKYTTLSYRAPEMVNLYSGKIITTKADIWALGCLLYKLCYFTLPFGESQVAICDGNFTIPDNSRYSQDMHCLIRYMLEPDPDKRPDIYQVSYFSFKLLKKECPIPNVQNSPIPAKLPEPVKASEAAAKKTQPKARLTDPIPTTETSIAPRQRPKAGQTQPNPGILPIQPALTPRKRATVQPPPQAAGSSNQPGLLASVPQPKPQAPPSQPLPQTQAKQPQAPPTPQQTPSTQAQGLPAQAQATPQHQQQLFLKQQQQQQQPPPAQQQPAGTFYQQQQAQTQQFQAVHPATQQPAIAQFPVVSQGGSQQQLMQNFYQQQQQQQQQQQQQQLATALHQQQLMTQQAALQQKPTMAAGQQPQPQPAAAPQPAPAQEPAIQAPVRQQPKVQTTPPPAVQGQKVGSLTPPSSPKTQRAGHRRILSDVTHSAVFGVPASKSTQLLQAAAAEASLNKSKSATTTPSGSPRTSQQNVYNPSEGSTWNPFDDDNFSKLTAEELLNKDFAKLGEGKHPEKLGGSAESLIPGFQSTQGDAFATTSFSAGTAEKRKGGQTVDSGLPLLSVSDPFIPLQVPDAPEKLIEGLKSPDTSLLLPDLLPMTDPFGSTSDAVIGKVIISVSSVMHDMCACFKNDKYLVNQSLGNSPATPEAKAI | soluble |
| MGSDKIHHHHHHAAVNRVGMGSSWRAGVKVGVGVSYQFEPGWIGLKSGLYYANRGYSLGDYPRTTESATYVLKEMMTGGITQHFLQLPVMADFSWKVSKEVRMHLAVGMYAGVSVKNDTNWGSSFTMGYSKEPQALGKYVKSTGLGYSYGYGHSGYDEAENADHPFRDVNSFDWGLTTSFGIEVNNWVMNLGYDLSLGDEGGNYKIDGDNFSLYEVRSVGANYNTMSLTVGYKFKL | not soluble |
| GAMGSMSVSEANGTETIKPPMNGNPYGPNPSDFLSRVNNFSIIESTLREGEQFANAFFDTEKKIQIAKALDNFGVDYIELTSPVASEQSRQDCEAICKLGLKCKILTHIRCHMDDARVAVETGVDGVDVVIGTSQYLRKYSHGKDMTYIIDSATEVINFVKSKGIEVRFSSEDSFRSDLVDLLSLYKAVDKIGVNRVGIADTVGCATPRQVYDLIRTLRGVVSCDIECHFHNDTGMAIANAYCALEAGATHIDTSILGIGERNGITPLGALLARMYVTDREYITHKYKLNQLRELENLVADAVEVQIPFNNYITGMCAFTHKAGIHAKAILANPSTYEILKPEDFGMSRYVHVGSRLTGWNAIKSRAEQLNLHLTDAQAKELTVRIKKLADVRTLAMDDVDRVLREYHADLSDADRITKEASA | soluble |
| MAHHHHHHMNHVRHALDMDNEYTMVLDIGTIRRPAAQHRSESFMAASTTEWETKVERAERLSLLEGKKGCCYFSLYPEDVSAAFHEDAKSFPDVFSVEDAFVHCARLNLPMGEVAALLPAIPTETAEQVMHNLAEKCVIASPQSLAMTFLGEMSARLPVDLDIASFIIGGCNVGLGEAAVAIGSVAALPFRSITPLTYSSVPWNEATTWSREKYAGDIARHSDLLADTLVFIEWLKLRARGESTAEFLNTILVQEFKFVKIEGLMKYIREQLTNYVFLDRFDTLELLEDVSTSVQENSTIFLFLQAVALARRAAFIRDAGHLNEKDRYASMAFVRTSKRLMPHNYIPSSIKWDTGRILIPVILKNSTNILAGLFSLIHTPYFFASLLLLYPYVEYSKPVITDKGRVVYFGVSCNRQMKRFMVSIEEAAQILDFREKINLALSCMQALRTLSHPILKTKFLLILKKHDRLFDVERLHKNIRSQLLELVTELNVTEHQGSFETFATHCTAPKELLPMTDTPAMDVSVLRRFVDGTLWDSLPTPGSVVKPRAASFAGTPSTLPSAPLISTNDEDDDEEVEIIQDSYFMRHGPLIEDDDDD | not soluble |
| HHHHHHDYDIPTTENLYFQGAITLLTLIKTAEHWARQDIRTIEDSKLRALLTLCAVMTRKFSKSQLSLLCETHLRREGLGQDQAEPVLEVYQRLHSDKGGSFEAALWQQWDRQSLIMFITAFLNIALQLPCESSAVVVSGLRTLVPQSDNEE | soluble |
| MLIANEVYHALNLEEVWFLPNQIPPHKQGRDITSVESRLQMLELATEAEEHFSICLEELSRKGPSYTYDTMLQLTKKYPDVQFHFIIGGDMVEYLPKWYNIEALLDLVTFVGVARPGYKLRTPYPITTVEIPEFAVSSSLLRERYKEKKTCKYLLPEKVQVYIERNGLYES | not soluble |
| MKVNKFITIYKDIAQQIEGGRWKAEEILPSEHELTAQYGTSRETVRKALHMLAQNGYIQKIRGKGSVVLNREKMQFPVSGLVSFKELAQTLGKETKTTVHKFGLEPPSELIQKQLRANLDDDIWEVIRSRKIDGEHVILDKDYFFRKHVPHLTKEICENSIYEYIEGELGLSISYAQKEIVAEPCTDEDRELLDLRGYDHMVVVRNYVFLEDTSLFQYTESRHRLDKFRFVDFARRGK | soluble |

From the DeepSol protein solubility set
